The results in this text go back to US5877293, “CDR grafted anti-CEA antibodies and their production” (Celltech Therapeutics Limited, dated 1999).

Assay [1] concerns the target T1, Carcinoembryonic Antigen (CEA) (Homo sapiens (Human), UniProt P06731). Nature of the assay: competition RIA against 125I-labelled murine or chimeric A5B7 IgG1 on CEA coated beads. The procedure: (§1) The competition RIA for anti-CEA activity involved competition of a series of ^125I-labelled murine or chimeric A5B7 IgG1 with humanised IgG or fragments thereof from culture supernatant samples for binding to CEA coated beads. Binding activity was determined by measuring bead associated radioactivity. The assay was calibrated by competition with standard preparations of chimeric or murine A5B7 IgG1 and plotting % bound cpm versus antibody concentration. Interpolated apparent A5B7 concentration of unknowns was normalised by dividing by the assembly assay result to give a specific activity. Finally specific activity was expressed as % relative potency by comparison to that obtained from a positive control chimeric A5B7 culture supernatant produced during the same experiment.
The relative potency of purified murine and chimeric A5B7 Fab' and F(ab')_2 fragments and murine IgG was investigated using the competition RIA. In addition, the direct binding ELISA was run in competition mode, by coincubation of the test specimen with murine A5B7 IgG1, for confirmation of relative potency.
The relative potencies of murine and chimeric IgGs and fragments were measured by the competition RIA.

Assay [2] concerns the target T1, Carcinoembryonic Antigen (CEA). As to the kind of experiment: direct CEA binding ELISA, crude transient CHO supernatant (pAL45 + pBG11).
Assay [3] has the same target. As to the kind of experiment: direct CEA binding ELISA, crude transient CHO supernatant.
For assay [4] the target is unchanged. As to the kind of experiment: competition RIA on CEA coated beads, crude CHO supernatant. The procedure:
as §1
In order to assess the CEA binding activity of the grafted chains co-expression, experiments in a transient CHO cell system were first performed with chimeric partners. Thus pAL43 and pAL44 were co-transfected into the CHO L761 h cell line (27) together with the chimeric A5B7 heavy chain expression plasmid pBG7, while pAL45 and pAL46 were co-transfected with the light chain expression plasmid pBG11. Co-transfections of pBG7 and pHMC19 were also performed to provide a chimeric/chimeric standard against which to compare activity of the chimeric/grafted hybrids. […] Competition RIAs were also performed on the crude CHO cell supernatants for gL1/gH2 and gL2/gH2.

For assay [5] the target is unchanged. As to the kind of experiment: direct CEA binding ELISA, crude transient CHO supernatant (pAL43 + pBG7).
The target is the same in assay [6]. As to the kind of experiment: direct CEA binding ELISA, crude transient CHO supernatant (pAL44 + pBG7).
The target is the same in assay [7]. As to the kind of experiment: direct CEA binding ELISA, crude transient CHO supernatant (pAL46 + pBG11).

Numbering of substitutions follows the chain as printed.

B1: murine A5B7 F(ab')2 (other)
VH: EVKLVESGGGLVQPGGSLRLSCATSGFTFTDYYMNWVRQPPGKALEWLGFIGNKANGYTTEYSASVKGRFTISRDKSQSILYLQMNTLRAEDSATYYCTRDRGLRFYFDYWGQGTTLTVSS
VL: QTVLSQSPAILSASPGEKVTMTCRASSSVTYIHWYQQKPGSSPKSWIYATSNLASGVPARFSGSGSGTSYSLTISRVEAEDAATYYCQHWSSKPPTFGGGTKLEIKR
In the case of B1, the “% Relative Potency” value in assay [1] was 97%.

B2: chimeric A5B7 light chain / grafted heavy chain gH1 hybrid (antibody, V domains shown)
VH: EVQLLESGGGLVQPGGSLRLSCATSGFTFTDYYMNWVRQAPGKGLEWLGFIGNKANGYTTEYSASVKGRFTISRDKSKSTLYLQMNGLQAEVSAIYYCTRDRGLRFYFDYWGQGTLVTVSS
VL: B1 VL
As to B2, the binding result in assay [2] is “binds”.

B3: Grafted A5B7 gL1/gH2 (antibody, V domains shown)
VH: B2 VH with G87T, V92D
VL: QTVLTQSPSSLSVSVGDRVTITCRASSSVTYIHWYQQKPGLAPKSLIYATSNLASGVPSRFSGSGSGTDYTFTISSLQPEDIATYYCQHWSSKPPTFGQGTKVEVKR
As for B3, in assay [3], the “binding relative to the double chimeric antibody” value was approximately 60%. In assay [4], this molecule yielded a Specific activity of 0.49 and a relative potency of 42%.

B4: Grafted A5B7 gL2/gH2 (antibody, V domains shown)
VH: B2 VH with G87T, V92D
VL: B3 VL with I21M, L46W, F72L
In the case of B4, the “binding relative to the double chimeric antibody” value in assay [3] is approximately 60%. In assay [4], this molecule displayed a Specific activity of 0.55 and a relative potency of 47%.

B5: grafted light chain gL1 / chimeric A5B7 heavy chain hybrid (antibody, V domains shown)
VH: B1 VH
VL: B3 VL
B5: the binding result in assay [5] is on record as “binds”.

B6: mouse monoclonal antibody A5B7 (murine A5B7 IgG1) (antibody, V domains shown)
VH: B1 VH
VL: B1 VL
In the case of B6, the “% Relative Potency” value in assay [1] turned out to be 93%.

B7: grafted light chain gL2 / chimeric A5B7 heavy chain hybrid (antibody, V domains shown)
VH: B1 VH
VL: B3 VL with I21M, L46W, F72L
B7: the binding result in assay [6] is on record as “binds”.

B8: murine A5B7 Fab' (Fab, V domains shown)
VH: B1 VH
VL: B1 VL
modifications: rendered monovalent by alkylation
Turning to B8, the “% Relative Potency” value in assay [1] came out at 8%.

B9: chimeric A5B7 IgG4 Fab' delta cys (Fab, V domains shown)
VH: B1 VH
VL: B1 VL
In the case of B9, the “% Relative Potency” value in assay [1] is 20%.

B10: chimeric A5B7 light chain / grafted heavy chain gH2 hybrid (antibody, V domains shown)
VH: B2 VH with G87T, V92D
VL: B1 VL
With B10, in assay [7], the binding result is on record as “binds”.

B11: chimeric A5B7 IgG1 (antibody, V domains shown)
VH: B1 VH
VL: B1 VL
Consider B11, for which, in assay [4], the Specific activity is 1.17 and the relative potency was found to be 100%. The “% Relative Potency” value in assay [1] stood at 100%.
